From US20140112919A1 come the findings set out here.

Experiment [1] concerns the target recombinant human IL-10 (human) (UniProt P22301).
For experiment [2] the target is unchanged. Description: Biacore, mean ± S.D. (n); format not described. On the technique in general: Surface plasmon resonance follows binding to a sensor surface in real time, without labels.
Experiment [3] concerns the target T1, recombinant mouse IL-10 (mouse) (UniProt P18893).
T1 sequence: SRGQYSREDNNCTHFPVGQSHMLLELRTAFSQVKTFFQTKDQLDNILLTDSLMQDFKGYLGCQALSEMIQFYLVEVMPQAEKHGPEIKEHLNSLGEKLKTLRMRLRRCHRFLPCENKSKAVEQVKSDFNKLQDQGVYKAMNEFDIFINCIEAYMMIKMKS
Description: Biacore, mean ± S.D. (n); format not described.

Experiment [4] has as its target recombinant cyno IL-10 (cyno) (UniProt P79338). Briefly: Biacore, mean ± S.D. (n); format not described.
In experiment [5] the target is recombinant human IL-10 (human) (UniProt P22301). Description: KinExA, mean (n). On the technique in general: A kinetic exclusion assay measures how much of one partner remains free in solution.
A further experiment has as its target rat anti hIL-10 mAb 12G8. Briefly: competitive ECLA (IGEN): unlabeled IL-10 titrated against hIL-10-biotin for binding to rat 12G8.

recombinant cyno IL-10 (cyno), sequence (P79338 19-178 limits assumed): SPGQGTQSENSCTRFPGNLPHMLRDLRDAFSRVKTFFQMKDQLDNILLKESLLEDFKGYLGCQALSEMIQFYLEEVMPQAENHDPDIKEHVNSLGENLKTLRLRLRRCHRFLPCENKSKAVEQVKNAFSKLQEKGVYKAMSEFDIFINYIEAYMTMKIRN

B1: rat anti hIL-10 mAb 12G8 (antibody, from a related filing, V domains shown)
VH: EVQLVESGGGLVRPGGSLRLSCTASGFTFSDYHMAWVRQSPDKGLEWVASITLDATYTYYRDSVRGRFTISRNNAKTTLYLQMDSLRSEDTATFYCTRHRGFSVWLDYWGQGVMVTVSS
VL: DIQMTQSPSLLSASVGDRVTLNCKTSQNIFENLAWYQQKLREPPKLLIFNASPLQAGIPSRFSGSGSGTDFTLTITSLQPEDVATYFCHQYYSGYTFGPGTKLELKR
By Kd is commonly meant the constant that tells how readily two partners part at equilibrium. In the case of B1, the Bioassay IC50(pM) in experiment [1] is 66 pM. The equilibrium dissociation constant (Kd) in experiment [2] was determined as 0.277 nM; in experiment [3] it was 7.4 nM; in experiment [4] it was 0.33 nM; in experiment [5], 0.023 nM.

B2: humanized anti-human IL-10 antibody SCH 708980 (12G8) (antibody, V domains shown)
VH: QVQLVESGGGVVQPGRSLRLSCAASGFTFSDYHMAWVRQAPGKGLEWVASITLDATYTYYRDSVRGRFTISRDNSKNTLYLQMNSLRAEDTAVYYCARHRGFSVWLDYWGQGTLVTVSS
VL: DIQMTQSPSSLSASVGDRVTITCKTSQNIFENLAWYQQKPGKAPKLLIYNASPLQAGVPSRFSGSGSGTDFTLTISSLQPEDFATYYCHQYYSGYTFGPGTKLELKR
With B2, the Bioassay IC50(pM) in experiment [1] is 93 pM.

B3: recombinant mouse IL-10 (ligand)
chain: SRGQYSREDNNCTHFPVGQSHMLLELRTAFSQVKTFFQTKDQLDNILLTDSLMQDFKGYLGCQALSEMIQFYLVEVMPQAEKHGPEIKEHLNSLGEKLKTLRMRLRRCHRFLPCENKSKAVEQVKSDFNKLQDQGVYKAMNEFDIFINCIEAYMMIKMKS
As a reminder, the IC50 is the concentration at which inhibition is half-maximal. Low values mean greater potency, high ones weaker potency. In the experiment with rat anti hIL-10 mAb 12G8, B3 registered an IC50 of 37.9 nM.
